B1: FUT8 (parent)
chain: YAHQPRTADEIPMEPGDIIGVAGN

Variants of: B1
Test: protein stability index of a GFP-peptide fusion (GPS, HEK-293T) (PSI 1-6); higher = more stable
Details: c terminus: a fixed tail appended
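Also: lentivirally expressed fusions sorted by FACS into six bins by GFP to DsRed ratio, PSI derived from sequencing read proportions per bin multiplied by bin number.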

Protein stability index: each site, then its substitutions
I19: Q 4.25; D 5.07; R 4.4; E 5.21; K 4.42; T 4.16; S 4.55; A 4.67; G 4.34; Y 4.06; N 4.72; P 4.61; H 4.02; L 3.65; M 4.54; F 3.78; W 1.93; V 4.17; C 4.22
N24: P 3.18; Q 4.03; V 3.61; E 4.59; S 4.17; K 3.62; G 3.43; I 2.93; L 2.77; Y 3.21; M 3.21; T 4.13; A 3.95; D 4.71; W 2.66; H 3.39; F 2.46; R 3.5; C 3.57
D17: K 3.25; E 4.24; P 3.14; V 2.87; G 3.38; Y 2.68; S 3.78; F 2.03; W 1.41; M 3.06; L 2.3; C 2.79; A 3.23; T 3.38; Q 4.14; R 3.45; I 2.57; N 3.48; H 3.29
I18: L 4.05; C 3.01; Q 4.07; V 4.47; K 4.56; E 4.19; N 4.03; R 4.45; W 3.11; P 4.7; G 3.84; H 3.71; Y 3.63; F 3.55; A 3.83; M 4.21; D 4.95; S 3.79; T 4.2
G23: T 3.87; K 4.19; F 2.99; M 3.7; L 3.27; W 2.67; R 3.31; Y 3.13; S 3.77; Q 4.11; A 3.96; C 3.12; E 4.83; N 3.63; I 2.87; D 4.24; V 3.58; P 3.73; H 3.99
P15: Y 3.31; W 2.2; S 3.92; M 3.68; R 4.23; Q 4.25; V 3.58; K 4.16; I 3.5; T 4.25; N 4.08; L 3.2
G20: L 2.96; H 4.17; Q 4.06; F 3.55; K 4.34; N 4.29; P 4.47; R 3.56; T 4.37; E 4.48; I 3.26; A 4.26; Y 3.37; C 3.73; V 3.5; W 2.08; M 4.11; D 4.59; S 3.86
A22: F 2.85; R 4; G 4.01; Y 3.27; W 2.41; K 4.4; V 3.26; H 3.97; Q 4.31; S 3.92; N 4.38; C 3.14; L 3.63; M 3.96; I 3.12; P 4.06; E 3.92; D 4.19; T 3.87
G16: T 3.86; M 3.54; N 4.16; Q 4.17; F 2.93; A 4.3; K 3.75; V 3.92; R 3.66; D 4.61; W 2.12; L 3.73; I 3.44; S 3.87; P 4.1; C 3.5; H 4.08; E 4.26; Y 3.05
V21: A 4.33; C 4; K 3.99

— the supplement of paper PMC10567573
